The target of series [1] is T1, TrfA-33 G254D/S267L (monomeric) (plasmid RK2, UniProt P07676 98-382, G254D;S267L).
T1 sequence: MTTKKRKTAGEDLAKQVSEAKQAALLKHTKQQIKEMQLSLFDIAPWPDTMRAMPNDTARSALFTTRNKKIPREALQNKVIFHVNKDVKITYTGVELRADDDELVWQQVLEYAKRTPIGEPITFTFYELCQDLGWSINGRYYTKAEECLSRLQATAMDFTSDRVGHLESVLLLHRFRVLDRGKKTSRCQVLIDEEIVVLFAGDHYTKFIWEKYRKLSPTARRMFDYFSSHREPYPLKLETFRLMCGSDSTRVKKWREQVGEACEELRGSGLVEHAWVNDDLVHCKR
Briefly: EMSA; up to 20 pmol TrfA per 1 pmol probe; EMSA: 40 mM HEPES-KOH pH 8, 25 mM Tris-HCl pH 7.6, 100 mM NaCl, 4% sucrose, 4 mM DTT, 80 ug/ml BSA, 32 C 20 min, 1 pmol probe, 5-20 pmol Rep; SPR: HBS-EP (150 mM NaCl, 10 mM HEPES pH 7.4, 3 mM EDTA, 0.005% P20). The following applies: protein: recombinant; label: Alexa555 3' tailed (EMSA); immobilized on streptavidin chip (SPR); fluorescent (gel filtration).

Series [2] deals with T1, TrfA-33 G254D/S267L (monomeric). Briefly: SPR; 0.1-1 uM TrfA; response over five times lower than wild type; EMSA: 40 mM HEPES-KOH pH 8, 25 mM Tris-HCl pH 7.6, 100 mM NaCl, 4% sucrose, 4 mM DTT, 80 ug/ml BSA, 32 C 20 min, 1 pmol probe, 5-20 pmol Rep; SPR: HBS-EP (150 mM NaCl, 10 mM HEPES pH 7.4, 3 mM EDTA, 0.005% P20). The following applies: protein: recombinant; label: Alexa555 3' tailed (EMSA); immobilized on streptavidin chip (SPR); fluorescent (gel filtration).

Series [3] has the same target. Briefly: SPR; 0.1-1 uM TrfA; higher affinity than bottom ssDNA; EMSA: 40 mM HEPES-KOH pH 8, 25 mM Tris-HCl pH 7.6, 100 mM NaCl, 4% sucrose, 4 mM DTT, 80 ug/ml BSA, 32 C 20 min, 1 pmol probe, 5-20 pmol Rep; SPR: HBS-EP (150 mM NaCl, 10 mM HEPES pH 7.4, 3 mM EDTA, 0.005% P20). Particulars: protein: recombinant; label: biotin; blunt.
For series [4] the target is unchanged. Briefly: EMSA; EMSA: 40 mM HEPES-KOH pH 8, 25 mM Tris-HCl pH 7.6, 100 mM NaCl, 4% sucrose, 4 mM DTT, 80 ug/ml BSA, 32 C 20 min, 1 pmol probe, 5-20 pmol Rep; SPR: HBS-EP (150 mM NaCl, 10 mM HEPES pH 7.4, 3 mM EDTA, 0.005% P20). The following applies: protein: recombinant; label: Alexa555 3' tailed (EMSA); immobilized on streptavidin chip (SPR); fluorescent (gel filtration).

The target of another series is RepE R118P (monomeric) (plasmid F, UniProt P03856 1-251, R118P). Briefly: gel filtration; tripartite with plasmid cccDNA; EMSA: 40 mM HEPES-KOH pH 8, 25 mM Tris-HCl pH 7.6, 100 mM NaCl, 4% sucrose, 4 mM DTT, 80 ug/ml BSA, 32 C 20 min, 1 pmol probe, 5-20 pmol Rep; SPR: HBS-EP (150 m).

B1: ssDNA DUEoriV top (ssDNA)
DNA: CCACCGCTAACCTGTCTTTTAACCTGCTTTTAAACCAATATTTATAAACCTTGTTTTTAACCAGGGCTGC
For B1, the binding result in series [1] is listed as “no binding”.

B2: ssDNA DUEoriV bottom swap R (ssDNA)
DNA: CCACCGCATTGGACAGAAAATTGGACGAAAATTTGGTTATAAATTAAACCTTGTTTTTAACCAGGGCTGC
Regarding B2, the binding signal in series [2] was < 0.2 SPR response relative to N2.

B3: dsDNA iterons (five RK2 iterons) (dsDNA)
DNA 1: CCTGCGGTATTGACACTTGAGGGGCGCGACTACTGACAGATGAGGGGCGCGATCCTTGACACTTGAGGGGCAGAGTGATGACAGATGAGGGGCGCACCTATTGACATTTGAGGGGCTGTCCACAGGCAG
DNA 2: CTGCCTGTGGACAGCCCCTCAAATGTCAATAGGTGCGCCCCTCATCTGTCATCACTCTGCCCCTCAAGTGTCAAGGATCGCGCCCCTCATCTGTCAGTAGTCGCGCCCCTCAAGTGTCAATACCGCAGG
In the case of B3, in series [3], the binding result was “binds”.

B4: ssDNA DUEoriV bottom swap M2-R (ssDNA)
DNA: CCACCGCATTGGACAGAAAATTGGACGAAAATAACCAATATTTATAAACCTTGTTTTTAACCAGGGCTGC
Take B4: the binding result in series [4] is reported as “no binding”.

B5: ssDNA DUEoriV bottom swap M1-R (ssDNA)
DNA: CCACCGCATTGGACAGAAAAAACCTGCTTTTAAACCAATATTTATAAACCTTGTTTTTAACCAGGGCTGC
As for B5, the binding result in series [4] is reported as “no binding”.

B6: ssDNA DUEoriS bottom (ssDNA)
DNA: GCTCTAAAAAAGAAGATCTAAAAACTATAAAAAAAATAATTATAAAAATATCCCCGTG
Turning to B6, the binding result with RepE R118P (monomeric) was “binds”.

Values taken from article PMC4081077, “Sequence-specific interactions of Rep proteins with ssDNA in the AT-rich region of the plasmid replication origin”.
